# Measurements from paper PMC8778164, “Towards Complete Tumor Resection: Novel Dual-Modality Probes for Improved Image-Guided Surgery of GRPR-Expressing Prostate Cancer” (Pharmaceutics, 2022).
# Assays:
# GRPR = target: T1, GRPR (Homo sapiens, UniProt P30550); test: Competition binding assay against [111In]In-NeoB on PC-3 cells; conditions: IC50 of compound over IC50 of NeoB
# T1 construct: host or cells: PC-3 cells (human prostate adenocarcinoma)
# Experimental: GRPR-positive human-derived prostate adenocarcinoma epithelial PC-3 cells (ATCC, Manassas, VA, USA) were cultured in Ham’s F-12K (Kaighn’s) Medium (Gibco, Paisley, UK) supplemented with 10% fetal bovine serum, penicillin (100 units/mL) and streptomycin (100 µg/mL). Cells were routinely passaged and grown in tissue culture flasks at 37 °C in a humidified atmosphere with 5% CO2.
# The affinity of all six probes for GRPR was determined using a competition binding assay. PC-3 cells were seeded in 12-well plates (2.5 × 10^5 cells/well) one day prior to the experiment. The next day, cells were washed with warm Dulbecco’s phosphate-buffered saline (PBS) (Gibco). Subsequently, cells were incubated for 1 h at 37 °C with 0.5 mL incubation medium (Ham’s F-12K, 20 mM HEPES, 1% BSA, pH 7.4) containing 10^−9 M [^111In]In-NeoB, in the presence or absence of increasing concentrations (10^−12 to 10^−6 M) of one of the six unlabeled probes or NeoB (positive control). After incubation, the medium was removed and cells were washed twice with cold PBS. To determine the amount of activity that was taken up by the cells, cells were lysed using 1 M NaOH for > 20 min at rt, then collected and measured in a γ-counter. To determine the amount of radioactivity added per well, samples of the incubation medium containing 10^−9 M [^111In]In-NeoB were also measured. The results are expressed as the percentage of added dose (%AD) and were normalized to the uptake of [^111In]In-NeoB (in the absence of cold compound). Data represent the mean ± standard deviation (SD) of triplicate wells.
# Statistical analysis was performed using GraphPad Prism version 5.01 (GraphPad Software Inc., San Diego, CA, USA). The half-maximal inhibitory concentration (IC50) values were estimated by the log (inhibitor) vs. the normalized response fitting routine. To compare the uptake values of the two probes studied in vivo, an unpaired t-test was used with the significance levels set at 5%. The results are represented as mean ± standard deviation (SD).
# [1] = Stability in mouse serum at 37 °C (iTLC); assay type: in vitro ADME; conditions: for Stability in Mouse Serum (%) 30 min / Stability in Mouse Serum (%) 1 h / Stability in Mouse Serum (%) 2 h / Stability in Mouse Serum (%) 4 h: intact labeled ligand after incubation at 37 °C in mouse serum, n = 1
# Experimental: (§1) Stability in PBS was determined by incubating 20 µL of the labeled compounds (∼11 MBq) in PBS (80 µL) at 37 °C. Radiochemical purity was determined by iTLC at 30 min, 1 h, 2 h and 4 h. Stability in the serum was carried out by adding 70 µL of the labeled compound (∼35 MBq) to 330 µL of mouse serum (Merck, Haarlerbergweg, The Netherlands). The mixture was incubated at 37 °C. At different time points (30 min, 1 h, 2 h and 4 h), an aliquot of the mixture (50 µL) was added to 50 µL ACN. The vial was vortexed and centrifuged at 10,000 rpm for 20 min and the supernatant was analyzed by iTLC.
# [2] = Distribution coefficient (LogD7.4), shake-flask method; assay type: physicochemical; conditions: n-octanol/PBS pH 7.4, n = 3; read-out: Log D7.4
# Experimental: Distribution coefficients (LogD7.4) for the ^111In-labeled compounds were determined by a shake-flask method. The experiments were performed in triplicate for each radioligand. A sample containing the radioligand (0.5–2.0 MBq) was dissolved in 1 mL solution of phosphate-buffered saline (0.01 M, pH 7.4) and n-octanol (v:v = 1:1). The vials were vortexed vigorously and then centrifuged at 10,000 rpm for 3 min, for phase separation. Samples (10 μL) of each phase were taken out and analyzed using a gamma counter. LogD7.4 values were calculated, using the following equation: LogD7.4 = log {(counts in n-octanol phase)/(counts in PBS phase)}.
# [3] = Stability in PBS at 37 °C (iTLC); assay type: physicochemical; conditions: intact labeled ligand after incubation at 37 °C in PBS, n = 1
# Experimental: as §1
# T1 sequence (P30550 whole entry): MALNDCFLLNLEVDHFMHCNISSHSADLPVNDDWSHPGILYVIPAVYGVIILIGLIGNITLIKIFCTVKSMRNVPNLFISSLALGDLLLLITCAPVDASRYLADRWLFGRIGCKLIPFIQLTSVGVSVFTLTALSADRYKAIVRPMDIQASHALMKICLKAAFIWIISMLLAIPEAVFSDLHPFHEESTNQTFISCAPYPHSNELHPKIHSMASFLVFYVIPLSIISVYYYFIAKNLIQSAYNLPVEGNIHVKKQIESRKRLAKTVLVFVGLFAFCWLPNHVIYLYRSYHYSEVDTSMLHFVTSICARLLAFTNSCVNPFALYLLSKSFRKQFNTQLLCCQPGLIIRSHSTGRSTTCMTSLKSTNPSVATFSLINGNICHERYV
smiles,measurement,setting,value
CC(C)CC(CC(C)C)NC(=O)[C@H](Cc1c[nH]cn1)NC(=O)CNC(=O)[C@@H](NC(=O)[C@H](C)NC(=O)[C@H](Cc1c[nH]c2ccccc12)NC(=O)[C@H](CCC(N)=O)NC(=O)[C@@H](Cc1ccccc1)NC(=O)CCOCCOCCOCCOCCNC(=O)OC1CCCC2C=NN=C(c3ccc(CNC(=O)CCCCC[N+]4=C(/C=C/C=C/C=C5N(C)c6ccc(S(=O)(=O)O)cc6C5(C)C)C(C)(C)c5cc(S(=O)(=O)[O-])ccc54)cc3)C2CC1)C(C)C (some centres unmarked) [Compound 11],Ratio Compound/NeoB (IC50),GRPR,4.5
"CC(C)CC(CC(C)C)NC(=O)[C@H](Cc1c[nH]cn1)NC(=O)CNC(=O)[C@@H](NC(=O)[C@H](C)NC(=O)[C@H](Cc1c[nH]c2ccccc12)NC(=O)[C@H](CCC(N)=O)NC(=O)[C@@H](Cc1ccccc1)NC(=O)CCOCCOCCOCCOCCNC(=O)[C@H](CCCCNC(=O)CCOCCOCCOCCOCCNC(=O)OC1CCCC2C=NN=C(c3ccc(CNC(=O)CCCCC[N+]4=C(/C=C/C=C/C=C5N(C)c6ccc(S(=O)(=O)O)cc6C5(C)C)C(C)(C)c5cc(S(=O)(=O)[O-])ccc54)cc3)C2CC1)NC(=O)CN1CCN(CC(=O)O)CCN(CC(=O)O)CCN(CC(=O)O)CC1)C(C)C (some centres unmarked) [[^111In]In-13, metal not drawn]",Stability in Mouse Serum (%) 30 min,[1],98.1%
same,Stability in Mouse Serum (%) 1 h,[1],97.9%
same,Stability in Mouse Serum (%) 2 h,[1],97.6%
same,Stability in Mouse Serum (%) 4 h,[1]; 4 h,97.3%
same,Protein-Bound Fraction at 4 h (%),"[1]; mouse serum, 4 h",5.6%
same,logD,[2],-1.8 ± 0.01
same,Stability in PBS (%) 30 min,[3],87.4%
same,Stability in PBS (%) 1 h,[3],87.5%
same,Stability in PBS (%) 2 h,[3],86.2%
same,Stability in PBS (%) 4 h,[3],84.4%
CC(C)CC(CC(C)C)NC(=O)[C@H](Cc1c[nH]cn1)NC(=O)CNC(=O)[C@@H](NC(=O)[C@H](C)NC(=O)[C@H](Cc1c[nH]c2ccccc12)NC(=O)[C@H](CCC(N)=O)NC(=O)[C@@H](Cc1ccccc1)NC(=O)CCOCCOCCOCCOCCNC(=O)[C@H](CCCCNC(=O)OC1CCCC2C=NN=C(c3ccc(CNC(=O)CCCCC[N+]4=C(/C=C/C=C/C=C5N(C)c6ccc(S(=O)(=O)O)cc6C5(C)C)C(C)(C)c5cc(S(=O)(=O)[O-])ccc54)cc3)C2CC1)NC(=O)CN1CCN(CC(=O)O)CCN(CC(=O)O)CCN(CC(=O)O)CC1)C(C)C (some centres unmarked) [Compound 15],Ratio Compound/NeoB (IC50),GRPR,11.2
CC(C)CC(CC(C)C)NC(=O)[C@H](Cc1c[nH]cn1)NC(=O)CNC(=O)[C@@H](NC(=O)[C@H](C)NC(=O)[C@H](Cc1c[nH]c2ccccc12)NC(=O)[C@H](CCC(N)=O)NC(=O)[C@@H](Cc1ccccc1)NC(=O)COCC(=O)Nc1ccc(CNC(=O)[C@H](CCCCNC(=O)CCOCCOCCOCCOCCNC(=O)OC2CCCC3C=NN=C(c4ccc(CNC(=O)CCCCC[N+]5=C(/C=C/C=C/C=C6N(C)c7ccc(S(=O)(=O)O)cc7C6(C)C)C(C)(C)c6cc(S(=O)(=O)[O-])ccc65)cc4)C3CC2)NC(=O)CN2CCN(CC(=O)O)CCN(CC(=O)O)CCN(CC(=O)O)CC2)cc1)C(C)C (some centres unmarked) [Compound 12],Ratio Compound/NeoB (IC50),GRPR,9.1
CC(C)CC(CC(C)C)NC(=O)[C@H](Cc1c[nH]cn1)NC(=O)CNC(=O)[C@@H](NC(=O)[C@H](C)NC(=O)[C@H](Cc1c[nH]c2ccccc12)NC(=O)[C@H](CCC(N)=O)NC(=O)[C@@H](Cc1ccccc1)NC(=O)COCC(=O)Nc1ccc(CNC(=O)[C@H](CCCCNC(=O)OC2CCCC3C=NN=C(c4ccc(CNC(=O)CCCCC[N+]5=C(/C=C/C=C/C=C6N(C)c7ccc(S(=O)(=O)O)cc7C6(C)C)C(C)(C)c6cc(S(=O)(=O)[O-])ccc65)cc4)C3CC2)NC(=O)CN2CCN(CC(=O)O)CCN(CC(=O)O)CCN(CC(=O)O)CC2)cc1)C(C)C (some centres unmarked) [Compound 14],Ratio Compound/NeoB (IC50),GRPR,24.6
CC(C)CC(CC(C)C)NC(=O)[C@H](Cc1c[nH]cn1)NC(=O)CNC(=O)[C@@H](NC(=O)[C@H](C)NC(=O)[C@H](Cc1c[nH]c2ccccc12)NC(=O)[C@H](CCC(N)=O)NC(=O)[C@@H](Cc1ccccc1)NC(=O)CCOCCOCCOCCOCCNC(=O)[C@H](CCCCNC(=O)CCOCCOCCOCCOCCNC(=O)OC1CCCC2C=NN=C(c3ccc(CNC(=O)CCCCC[N+]4=C(/C=C/C=C/C=C5N(C)c6ccc(S(=O)(=O)O)cc6C5(C)C)C(C)(C)c5cc(S(=O)(=O)[O-])ccc54)cc3)C2CC1)NC(=O)CN1CCN(CC(=O)O)CCN(CC(=O)O)CCN(CC(=O)O)CC1)C(C)C (some centres unmarked) [Compound 13],Ratio Compound/NeoB (IC50),GRPR,18.2
"CC(C)CC(CC(C)C)NC(=O)[C@H](Cc1c[nH]cn1)NC(=O)CNC(=O)[C@@H](NC(=O)[C@H](C)NC(=O)[C@H](Cc1c[nH]c2ccccc12)NC(=O)[C@H](CCC(N)=O)NC(=O)[C@@H](Cc1ccccc1)NC(=O)COCC(=O)Nc1ccc(CNC(=O)[C@H](CCCCNC(=O)OC2CCCC3C=NN=C(c4ccc(CNC(=O)CCCCC[N+]5=C(/C=C/C=C/C=C6N(C)c7ccc(S(=O)(=O)O)cc7C6(C)C)C(C)(C)c6cc(S(=O)(=O)[O-])ccc65)cc4)C3CC2)NC(=O)CN2CCN(CC(=O)O)CCN(CC(=O)O)CCN(CC(=O)O)CC2)cc1)C(C)C (some centres unmarked) [[^111In]In-14, metal not drawn]",Stability in Mouse Serum (%) 30 min,[1],94.6%
same,Stability in Mouse Serum (%) 1 h,[1],94.1%
same,Stability in Mouse Serum (%) 2 h,[1],94.0%
same,Stability in Mouse Serum (%) 4 h,[1]; 4 h,94.1%
same,fraction unbound at 4 h,"[1]; mouse serum, 4 h, read-out: Protein-Bound Fraction at 4 h (%) (converted)",0.929
same,logD,[2],-1.52 ± 0.1
same,Stability in PBS (%) 30 min,[3],74.2%
same,Stability in PBS (%) 1 h,[3],48.5%
same,Stability in PBS (%) 2 h,[3],30.9%
same,Stability in PBS (%) 4 h,[3],33.7%
CC(C)CC(CC(C)C)NC(=O)[C@H](Cc1c[nH]cn1)NC(=O)CNC(=O)[C@@H](NC(=O)[C@H](C)NC(=O)[C@H](Cc1c[nH]c2ccccc12)NC(=O)[C@H](CCC(N)=O)NC(=O)[C@@H](Cc1ccccc1)NC(=O)COCC(=O)Nc1ccc(CNC(=O)OC2CCCC3C=NN=C(c4ccc(CNC(=O)CCCCC[N+]5=C(/C=C/C=C/C=C6N(C)c7ccc(S(=O)(=O)O)cc7C6(C)C)C(C)(C)c6cc(S(=O)(=O)[O-])ccc65)cc4)C3CC2)cc1)C(C)C (some centres unmarked) [Compound 10],Ratio Compound/NeoB (IC50),GRPR,12.9
